These results are taken from PMC9605714.

The test addresses SUMOylated Hsp82p (Hsp82p^K178C crosslinked with BMOE to Smt3p^Cys at position 178) (S. cerevisiae) (UniProt P02829).

B1: 6xHisMyc-tagged Aha1p (natural protein)
chain: MVVNNPNNWHWVDKNCIGWAKEYFKQKLVGVEAGSVKDKKYAKIKSVSSIEGDCEVNQRKGKVISLFDLKITVLIEGHVDSKDGSALPFEGSINVPEVAFDSEASSYQFDISIFKETSELSEAKPLIRSELLPKLRQIFQQFGKDLLATHGNDIQVPESQVKSNYTRGNQKSSFTEIKDSASKPKKNALPSSTSTSAPVSSTNKVPQNGSGNSTSIYLEPTFNVPSSELYETFLDKQRILAWTRSAQFFNSGPKLETKEKFELFGGNVISELVSCEKDKKLVFHWKLKDWSAPFNSTIEMTFHESQEFHETKLQVKWTGIPVGEEDRVRANFEEYYVRSIKLTFGFGAVL
B1: the apparent binding affinity (K app) from Aha1p titration into ATPase reactions of 1 uM Hsp82p form (PK/LDH regenerating system) came to 0.31 µM.
